From the DeepSol protein solubility set

Experiment: soluble on expression in E. coli; label from the status in PepcDB or PDB records
With “MSSPSFPRVLIFDSGVGGLSVYREIEARLPQLNYIYLFDNAAYPYGELTQETLIARVDTLVTRMVEQERIDLVVIACNTASTIVLPVLRAKLTIPVVGVVPAIKPASLIASKAIGLIATPATVKRQYTQELIRDFSANKNVELLGSTRLVNMAEEKLRGKPLDLEELASILQPLKNTIDVAVLGCTHFPLIKEEIQQVLGEQVQLIDSGLAIARRVQELLGIEQAVGAKQKHRIYASAPPWEESALNIKLEQLGFNPVQPFLHPI” the “soluble on expression in E. coli” value was “not soluble”.
In the case of “MSRLQLAIEERDEAIARAKHMEMSLKVLENINPEENDMTLQELLNRINNADTGIAIQKNGAIIVDRIYKTKECKMRITAEEMSALIEERDAALSKCKRLEQELHHVKEQNQTSANNMRHLTAENNQERALKAKLLSMQQARETAVQQYKKLEEEIQTLRVYYSLHKSLSQEENLKDQFNYTLSTYEEALKNRENIVSITQQQNEELATQLQQALTERANMELQLQHAREASQVANEKVQKLERLVDVLRKKVGTGTMRTVI”, the “soluble on expression in E. coli” value is reported as “soluble”.
For “GASALSLSLLSISRSGNTVTLIGDFPDEAAKAALMTALNGLLAPGVNVIDQIHVDPVVRSLDFSSAEPVFTASVPIPDFGLKVERDTVTLTGTAPSSEHKDAVKRAATSTWPDMKIVNNIEVTGQAPPGPPA”, the “soluble on expression in E. coli” value was “soluble”.
For “MAHHHHHHMPGSELISGGWFREENDQWPGQAMSLRVEKVLYDAPTKFQHLTIFESDPKGPWGTVMALDGCIQVTDYDEFVYHEVLGHTSLCSHPKPERVLIIGGGDGGVLREVLRHGTVEHCDLVDIDGEVMEQSKQHFPQISRSLADPRATVRVGDGLAFVRQTPDNTYDVVIIDTTDPAGPASKLFGEAFYKDVLRILKPDGICCNQGESIWLDLELIEKMSRFIRETGFASVQYALMHVPTYPCGSIGTLVCSKKAGVDVTKPLRPVEDMPFAKDLKYYDSEMHKASFALPRFARHINNSE”, the “soluble on expression in E. coli” value was “soluble”.
In the case of “MIEMLLYEDTRMRAVEILRSLPIGNSGVSGLVQLAATLGASVEFRPSIPPFPESLSKKMNKTQKYTSTQMSQKFDNASHSPTK”, the “soluble on expression in E. coli” value is reported as “not soluble”.
In the case of “MTGNLVTKNSLTPDVRNGIDFKIADLSLADFGRKELRIAEHEMPGLMSLRREYAEVQPLKGARISGSLHMTVQTAVLIETLTALGAEVRWASCNIFSTQDHAAAAVVVGPHGTPDEPKGVPVFAWKGETLEEYWWAAEQMLTWPDPDKPANMILDDGGDATMLVLRGMQYEKAGVVPPAEEDDPAEWKVFLNLLRTRFETDKDKWTKIAESVKGVTEETTTGVLRLYQFAAAGDLAFPAINVNDSVTKSKFDNKYGTRHSLIDGINRGTDALIGGKKVLICGYGDVGKGCAEAMKGQGARVSVTEIDPINALQAMMEGFDVVTVEEAIGDADIVVTATGNKDIIMLEHIKAMKDHAILGNIGHFDNEIDMAGLERSGATRVNVKPQVDLWTFGDTGRSIIVLSEGRLLNLGNATGHPSFVMSNSFANQTIAQIELWTKNDEYDNEVYRLPKHLDEKVARIHVEALGGHLTKLTKEQAEYLGVDVEGPYKPDHYRY”, the “soluble on expression in E. coli” value is reported as “soluble”.
In the case of “MGSDKIHHHHHHMAFIAGEIAAVLDLPEVLRRRLFVAALLHDVGALSPEEKMDLYASKVEECDTHCIRGARLLHQVDGFGEEGRVLRLHHATLRDGSLADVDEDTARLAQIVHLSDLVDRALDRGRYVLHQADTMCDMARDLARCDFEVSIVRAFLEVARREDFWLQMVLPTLGQHLEAISPCRGEMLDACGVEVHAGLVQGMVDFRSSFTAAHSAGVAEAADALGGYCDLSPERRVVLRIAGLLHDLGKMAVPTSILEKPSGLTKAEFAFMRQHTFHTYRLLRGVDGLGGMAAWAAYHHEKLDGSGYPFHLEGRALDPQARIIGVADIFTAMAEDRPYRKGQGREGVLRVLRDECTTGRVDGELVETVAESYPDMVGRVLDAQHAARSRFSDVLQPAGEKGAKADQST”, the “soluble on expression in E. coli” value is reported as “not soluble”.
In the case of “MSLSIADNLKQVLAELPQGVRLVAVSKFHPNEAIEEAYQAGQRIFGESKVQEMTAKYETLPKDIEWHFIGHLQTNKIKYMIPYVEMIHGIDTYKLLAEVNKQAAKAGRIVNCLIQIHVAQEETKFGFSPEECKDMLHAGEWKELSHIRICGLMGMASNTDDVEQINREFCLLNRLFQEIKANWFADSDTFRELSMGMSHDYHEAIAAGSTLVRVGSKIFGERNYNTEGHHHHHH”, the “soluble on expression in E. coli” value is reported as “soluble”.
With “MGSDKIHHHHHHMSHSLTSVFQKIDSLKPQFFSRLTKAIQIPAVSSDESLRSKVFDKAKFISEQLSQSGFHDIKMVDLGIQPPPISTPNLSLPPVILSRFGSDPSKKTVLVYGHYDVQPAQLEDGWDTEPFKLVIDEAKGIMKGRGVTDDTGPLLSWINVVDAFKASGQEFPVNLVTCFEGMEESGSLKLDELIKKEANGYFKGVDAVCISDNYWLGTKKPVLTYGLRGCNYYQTIIEGPSADLHSGIFGGVVAEPMIDLMQVLGSLVDSKGKILIDGIDEMVAPLTEKEKALYKDIEFSVEELNAATGSKTSLYDKKEDILMHRWRYPSLSIHGVEGAFSAQGAKTVIPAKVFGKFSIRTVPDMDSEKLTSLVQKHCDAKFKSLNSPNKCRTELIHDGAYWVSDPFNAQFTAAKKATKLVYGVDPDFTREGGSIPITLTFQDALNTSVLLLPMGRGDDGAHSINEKLDISNFVGGMKTMAAYLQYYSESPEN” the “soluble on expression in E. coli” value was “not soluble”.
With “MGSDKIHHHHHHMTEGKSMFVGFDYGSANCAIGVMIDDAVSLLPLSTHSDFMPSTLYAMDRELIAEAVYQGLPEHLKAEYSHLRSSQLMRAKLMRHELDLSPNEQAVFVGQAAIDAYLDMPEEGFYVRSPKSFLGANGLRVEQIALFEDIVTLMMQHVKTLADKALNAKSLSSASHAVIGRPVNFQGIGGEDSNQQAETILRLAATRSGFTDVRFLFEPLAAGMDFESNLSDDNTVLVVDVGGGTTDCSVVKMGPSYIKQQDRSPDCFGHSGQRIGGNDLDIALAMTGLMPSFGADTLMINGKPMPRTPFWNAVAVNDISAQRDFVSLPSRKLVEQLIKEAQQPELLVRLQKVQKNQMSYQVVREAEAAKISLSDNDTIQCSLDFIEKGLLVPLTAAQFEQAINDPLAKVEALMKQAMQTATAKAEQQDCDMPTTPDIVYVTGGTARSPAIYNKIASVYPNAKVVVGDHFGSVTAGLTRCAEKCL” the “soluble on expression in E. coli” value was “not soluble”.
In the case of “MGSDKIHHHHHHMNEIKRIDTVQQYNDYFGMETLHPLVTVIDAREANPVHFCPKLYNLYAILMKDPDCGTLKYGRSIYDYQQGTMLFLAPGQVMGSDDDGQLHQPGGWLLAFHPELVRNTPLAQFIKNYSFFSYSANEALHLSEQERRTIIDCMCKIREELLHPIDKHTKSLITDNIKLLLDYCERFYDRQFETRENVNLDILARFEQTLDDYLASNLPISKGTPTVQYCADKLCLSANYLSDLLKKETGVSALKHIQQKMLDIAKERVFDVTKSISEISYELGFPYPQHFSRWFKKMVGVTPNEYRQNRNN”, the “soluble on expression in E. coli” value is reported as “not soluble”.
In the case of “MSLDVGGSERIPSEMRAWEVTSPAPIDSSPSPIHFVKHPVPVPKTSEVLVRVISCGICHTDLHVAEGDLPVHHPHVIPGHEIIGRVVANGPQAGRFNLGDRIGVPWLRWTCGVCTYCRSGKENLCPNSLYTGWDHDGGYAEYVTVPEGFAYRIPSAFNSVTAAPLLCAGIIGYHAFRRANVPAGGRLGLYGFGGSAHLAAQIAIAQGIEVHVFTRGKDAQRFALELGAASAQGVYDPSPVSLDSSILFAPVGDIVPKALENLAAGGTLALAGIHLTDVPSLNYQNHLFHEKVLTSVESNTRRDGEEFLTLADRLKIHPKTTEYPFEKADEALRHLSHGDMQGACVLRISEGHHHHHH”, the “soluble on expression in E. coli” value is reported as “not soluble”.
In the case of “MSKVALFAGGDLSYISRDFDYFVGIDRGSLFLLENGLPLNMAVGDFDSVSQKAFTDIKEKAELFITAHPEKNDTDTELALKEVFARFPEAEVTIFGAFGGRMDHLLSNIFLPSDPGIAPFMAQIALRDQQNMITYRPAGQHLIHQEEGMTYVAFMAEGEADLTITGAKFELTQDNFFKKKIYSSNAFIHQPITVSLPSGYLIIIQSKDWS”, the “soluble on expression in E. coli” value is reported as “soluble”.
For “MGSDKIHHHHHHMSSLINDIHAEDVANYLNRNREFFHVFPNLLNELSIPHPKSGHEVSLLERQVFQLREQRDSLQVEVDTLKDIAGENGALLHKVYDLSYALLAAESEQEAVNVVYDVMHDVFTVEEVTIISWEVPKSSVHGVNQLGISQAWSQSLKETLQPGKPVCGLLEDSWQKGLFHTDKAMQSVCVIPLGQQRVWGALALGATTDRFSPELGTYFLKVMGQMVTARLQRLF”, the “soluble on expression in E. coli” value was “not soluble”.
In the case of “PTANIMFDRRVVRGNTYAARILPADATQTQTKGPSPASTKKRTTRTLPPRTPEAVDGRRHIDIQTDVYLEELTDTVPEADTSTQTDAFLDRPPTPLFVPQKTGTDAITQIENGDLFDFDFEVEPILEVLVGKVLEQGLMEVLEEEELAAMRAHQEHFEQIRNAELVATQRMEAAERRKLEEKERRMQQERERVERERVVRQKVAASAFARGYLSGIVNTVFDRLVSSGYIYDPVMREVETAFMPWLKEQAIGYLARGVVARRVVDKLVEDAAAALAANRSTLADKAASTAATVDAWAERQAKMEAELQGKELEAVRRRPTFVLRELKPAVASADAVEAAAAELTAQAEEAANAKWEA”, the “soluble on expression in E. coli” value is reported as “not soluble”.
In the case of “MKIALIGASGYVGSALLKEALSRGHHVTALVSRPERIAAQANLAAAKVDVQDSAQLAEQLKGFDAVLSAFSGHAQAEQFDYFVKGIRSIIAAAKAAQAPRLLVVGGAGSLEVAPGVQLVDTPEFPEQWKASALGAREALNLLRAETELNWTLLSPSAMLQPGQRTGQFRLGKDQLLVDAEGNSHISVEDYAVAMIDELEKGLEHHHHHH”, the “soluble on expression in E. coli” value is reported as “not soluble”.
For “SLHSMTAFAADEHLTPWGLLACELRSVNHRFLDIVIRLPEELRALESQLRERVAARVSRGKLDLTVRLSPQEIHTGKLVVNELLLSHLSTLALRLSAQFPALRVTFAELLQIPGVLKGEQIDMTTLQGHAVALLDKVLDNFIATREREGLKMQAMIAQRASAIERIVGEVRTLIPTIREGQHNKLNARMNHLSYPVDHGRIEQELVLWLQ”, the “soluble on expression in E. coli” value was “not soluble”.
In the case of “MGSDKIHHHHHHMKILHLGKFYPLKGGMEKAILDIVRGISMQGVTCDLLCVSTEKAGVFPLNEHAHIYAMPSVCNVNSVRISPLLIPTLRKLCPNYDIIHIHCPNPMANLALYLSGYRGKVVLHWHSDILKQKYALKLYKPLQTWLIRRADVIIGTSPVYLENSPFLRGMEHKFRIVPLGCEAIVPSADRVSDIRKQYKGKRIIFALGRLIAYKGFRFLIEAARYLDDGYVVLIGGTGPLYNKLLKQINEENLQGKVCLLGYVTDDEVAQYYGACDVFCLSSVWKTEAFGLVQIEAMSCGKPVVATNIEGSGVPWVNRNGYSGLNVEPENPEALAKAIMKITSSEEAYRTYSRQARAHYNKMFVKERMLAGYEQVYASLYHEK”, the “soluble on expression in E. coli” value is reported as “not soluble”.
With “MGSDKIHHHHHHMHIRKYDHDYSRRFFMEQAAKGIATAGVLGPLWPMIANSADITKAYPDELMSIDAWSKGKIKTGDFITAENVEIVKELLDPVAYHHIKTMGRKIRIVPTTRDITRMFPAEYLEATLRNQGKAKLDANSNVVSSDGKPWIGGNPFPDAKTGLEVAANLTMCWGRKDNSLTAIRDWEVAPDGSMSYQYDFAWVEQNTTARADGKVLPGGDELLRYNAVYFTGPSDVKGTSYLNTWYYDQRKFPELVGYLPAFKRVRKFPTNQRFEPLVPGMNLYLSDAWAAGDPMLTWGNYKIVGRGPMLGAQSQTWYGDRPNWERPVQGGPKNQTFFETQMELCPDVVIFEAEPTGYPRAPVGKKRVWVDVRNQMYVAYITYDRRGEIFKSFEPQYSFLEKGDKKLMDGKSTAWHWTAVQCYNFQDGRMTRFQPVTSIAGGMSTAFNIDGLYEKYMTQQALQRMGT” the “soluble on expression in E. coli” value was “not soluble”.
